In publication PMC8887125, “RBBP6 activates the pre-mRNA 3′ end processing machinery in humans” (Genes & Development, 2022):

Assays:
CPSF73 = target: T1, CPSF73 (Homo sapiens, UniProt Q9UKF6); assay: in vitro SV40 pre-mRNA cleavage assay with purified proteins, dose response by denaturing gel; type: biochemical
T1 construct: gene CPSF3; CPSF73 within the purified recombinant seven-subunit CPSF complex (mPSF + mCF); with CPSF subunits (CPSF100, symplekin, CPSF160, WDR33, CPSF30, hFip1) with CStF, CFIIm and RBBP6 (1-335)

[1] = target: CPSF (seven subunits);RBBP6 1-335 (Homo sapiens;Homo sapiens, UniProt Q10570;Q9C0J8;O95639;Q6UN15-4;Q9UKF6;Q9P2I0;Q92797;Q7Z6E9 …, internal_change|); assay: size exclusion chromatography; 2.5 uM CPSF, 7.5 uM RBBP6, 5 uM RNA; RBBP6 substoichiometric; EMSA: 100 nM RNA, 15 min on ice, 10% native PAGE at 4 C (binding buffer not stated); SEC: HEPES-NaOH pH 8.0, 50 mM NaCl, 0.5 mM TCEP; pull-down: 20 mM HEPES-NaOH pH 8.0, 50 mM NaCl, 0.5 mM TCEP, 2 mM Mg(OAc)2, 4 C; conditions: protein: recombinant;recombinant; tags: StrepII on WDR33 and symplekin;C-terminal TEV-StrepII; copies: 1;1;1;1;1;1;1;1; label: 5'-FAM
RBBP6 D43K R74E = target: T2, RBBP6 D43K R74E (Homo sapiens, UniProt Q7Z6E9 1-335, D43K;R74E); assay: EMSA; no CPSF; binding unaffected vs WT; EMSA: 100 nM RNA, 15 min on ice, 10% native PAGE at 4 C (binding buffer not stated); SEC: HEPES-NaOH pH 8.0, 50 mM NaCl, 0.5 mM TCEP; pull-down: 20 mM HEPES-NaOH pH 8.0, 50 mM NaCl, 0.5 mM TCEP, 2 mM Mg(OAc)2, 4 C; conditions: protein: recombinant; tags: C-terminal TEV-StrepII; label: 5'-FAM
T2 sequence: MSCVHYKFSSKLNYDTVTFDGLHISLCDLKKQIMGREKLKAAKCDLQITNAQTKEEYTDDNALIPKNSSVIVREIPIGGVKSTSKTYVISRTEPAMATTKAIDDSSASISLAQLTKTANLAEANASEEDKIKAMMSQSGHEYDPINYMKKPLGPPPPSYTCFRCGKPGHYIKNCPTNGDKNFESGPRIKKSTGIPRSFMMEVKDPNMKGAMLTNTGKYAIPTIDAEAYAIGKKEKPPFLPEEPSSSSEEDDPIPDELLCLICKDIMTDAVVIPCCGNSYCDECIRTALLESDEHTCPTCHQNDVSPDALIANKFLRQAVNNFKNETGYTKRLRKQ

RBBP6 Y228G = target: T3, RBBP6 Y228G (Homo sapiens, UniProt Q7Z6E9 1-335, Y228G); assay: as above; conditions: protein: recombinant; tags: C-terminal TEV-StrepII; label: 5'-FAM
T3 sequence: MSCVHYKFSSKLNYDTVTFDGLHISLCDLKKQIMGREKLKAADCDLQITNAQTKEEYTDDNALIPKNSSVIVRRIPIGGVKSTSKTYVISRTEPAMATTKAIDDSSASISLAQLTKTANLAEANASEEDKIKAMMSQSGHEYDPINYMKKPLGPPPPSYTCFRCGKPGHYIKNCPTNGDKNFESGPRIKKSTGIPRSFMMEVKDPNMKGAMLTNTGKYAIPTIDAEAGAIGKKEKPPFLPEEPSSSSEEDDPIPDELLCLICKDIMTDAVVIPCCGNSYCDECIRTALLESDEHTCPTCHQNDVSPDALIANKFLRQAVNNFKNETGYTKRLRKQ

RBBP6 P195G = target: T4, RBBP6 P195G (Homo sapiens, UniProt Q7Z6E9 1-335, P195G); assay: as above; conditions: protein: recombinant; tags: C-terminal TEV-StrepII; label: 5'-FAM
T4 sequence: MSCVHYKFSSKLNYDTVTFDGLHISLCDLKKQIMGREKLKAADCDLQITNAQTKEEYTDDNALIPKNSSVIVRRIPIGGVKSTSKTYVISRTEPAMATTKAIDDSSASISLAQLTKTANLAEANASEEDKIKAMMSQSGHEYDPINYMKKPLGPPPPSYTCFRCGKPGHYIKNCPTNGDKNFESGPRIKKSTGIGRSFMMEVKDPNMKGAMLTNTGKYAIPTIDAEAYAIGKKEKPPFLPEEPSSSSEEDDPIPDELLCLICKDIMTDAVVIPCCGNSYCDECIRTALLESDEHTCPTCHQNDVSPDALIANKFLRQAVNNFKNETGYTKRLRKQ

RBBP6 1-335 = target: T5, RBBP6 1-335 (Homo sapiens, UniProt Q7Z6E9 1-335); assay: EMSA; no CPSF; 100 nM RNA; EMSA: 100 nM RNA, 15 min on ice, 10% native PAGE at 4 C (binding buffer not stated); SEC: HEPES-NaOH pH 8.0, 50 mM NaCl, 0.5 mM TCEP; pull-down: 20 mM HEPES-NaOH pH 8.0, 50 mM NaCl, 0.5 mM TCEP, 2 mM Mg(OAc)2, 4 C; conditions: protein: recombinant; tags: C-terminal TEV-StrepII; label: 5'-FAM
T5 sequence: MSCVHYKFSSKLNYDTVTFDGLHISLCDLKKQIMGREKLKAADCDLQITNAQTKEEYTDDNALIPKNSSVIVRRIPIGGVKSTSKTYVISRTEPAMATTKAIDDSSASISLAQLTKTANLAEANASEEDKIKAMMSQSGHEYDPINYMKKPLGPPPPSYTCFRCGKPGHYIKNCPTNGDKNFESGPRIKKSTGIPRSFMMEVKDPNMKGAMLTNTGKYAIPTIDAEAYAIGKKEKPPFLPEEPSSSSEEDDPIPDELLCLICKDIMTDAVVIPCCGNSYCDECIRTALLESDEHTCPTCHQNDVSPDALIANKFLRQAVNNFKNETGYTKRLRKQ

[2] = target: T6, cleavage and polyadenylation specificity factor (CPSF), recombinant seven-subunit complex with hFip1 isoform 4 (human, UniProt Q10570 1-1443; Q9C0J8 1-576; O95639-2 1-244; Q6UN15 1-28; Q6UN15 44-393; Q9UKF6 …, F393K); assay: SEC; 2.5 µM CPSF, mCF or mCF_(symplekin ΔNTD) incubated with 10 µM SSU72 for 30 min on ice; Superose 6 Increase 3.2/300; HEPES-NaOH pH 8.0, 150 mM NaCl, 0.5 mM TCEP; peak fractions on SDS-PAGE; conditions: both partners purified
T6 construct: CPSF160, human; synthetic codon-optimised gene for the full-length protein; WDR33, human, residues 1-576 (unstructured region removed); CPSF30, human, isoform 2 (short isoform); synthetic gene for the isoform; hFip1, human; isoform 4 (UniProt Q6UN15-4) was built from residues 1-28 and 44-393 of the full-length protein; this piece is 1-28; second piece of isoform 4 (UniProt Q6UN15-4): residues …

[3] = target: T7, mammalian cleavage factor (mCF), wild type: CPSF73, CPSF100 and symplekin (human, UniProt Q9UKF6 1-684; Q9P2I0 1-782; Q92797 1-1274); assay: as above; conditions: both partners purified
T7 construct: CPSF73, human; synthetic gene for the full-length protein; CPSF100, human; symplekin, human; full coding region; also called mCFWT; source: Sf9 insect cells (baculovirus, pBig1), purified (Strep-Tactin, Resource Q, Superose 6); not shown: TEV site-StrepII (SII), C-terminal, kept; copies: + +
T7 sequence (Q9UKF6 whole entry, chain 1 of 3): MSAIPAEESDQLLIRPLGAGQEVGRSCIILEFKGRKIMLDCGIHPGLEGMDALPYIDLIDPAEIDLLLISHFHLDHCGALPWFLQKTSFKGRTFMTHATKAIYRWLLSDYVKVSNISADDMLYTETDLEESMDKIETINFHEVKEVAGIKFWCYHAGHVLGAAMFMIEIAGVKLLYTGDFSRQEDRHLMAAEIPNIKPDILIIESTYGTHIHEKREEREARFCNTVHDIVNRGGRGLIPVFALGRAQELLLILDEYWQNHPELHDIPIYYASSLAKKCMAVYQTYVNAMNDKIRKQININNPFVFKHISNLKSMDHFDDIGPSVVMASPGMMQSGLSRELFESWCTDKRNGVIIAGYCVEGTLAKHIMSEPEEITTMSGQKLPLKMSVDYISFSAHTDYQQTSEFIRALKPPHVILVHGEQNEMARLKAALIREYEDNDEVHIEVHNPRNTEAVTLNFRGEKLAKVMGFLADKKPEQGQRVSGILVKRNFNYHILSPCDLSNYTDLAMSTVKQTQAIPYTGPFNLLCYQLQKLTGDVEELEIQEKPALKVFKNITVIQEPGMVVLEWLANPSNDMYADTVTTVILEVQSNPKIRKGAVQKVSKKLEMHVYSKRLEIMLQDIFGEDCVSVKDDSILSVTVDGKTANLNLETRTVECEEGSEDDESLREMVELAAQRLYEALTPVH
T7 sequence (Q9P2I0 whole entry, chain 2 of 3): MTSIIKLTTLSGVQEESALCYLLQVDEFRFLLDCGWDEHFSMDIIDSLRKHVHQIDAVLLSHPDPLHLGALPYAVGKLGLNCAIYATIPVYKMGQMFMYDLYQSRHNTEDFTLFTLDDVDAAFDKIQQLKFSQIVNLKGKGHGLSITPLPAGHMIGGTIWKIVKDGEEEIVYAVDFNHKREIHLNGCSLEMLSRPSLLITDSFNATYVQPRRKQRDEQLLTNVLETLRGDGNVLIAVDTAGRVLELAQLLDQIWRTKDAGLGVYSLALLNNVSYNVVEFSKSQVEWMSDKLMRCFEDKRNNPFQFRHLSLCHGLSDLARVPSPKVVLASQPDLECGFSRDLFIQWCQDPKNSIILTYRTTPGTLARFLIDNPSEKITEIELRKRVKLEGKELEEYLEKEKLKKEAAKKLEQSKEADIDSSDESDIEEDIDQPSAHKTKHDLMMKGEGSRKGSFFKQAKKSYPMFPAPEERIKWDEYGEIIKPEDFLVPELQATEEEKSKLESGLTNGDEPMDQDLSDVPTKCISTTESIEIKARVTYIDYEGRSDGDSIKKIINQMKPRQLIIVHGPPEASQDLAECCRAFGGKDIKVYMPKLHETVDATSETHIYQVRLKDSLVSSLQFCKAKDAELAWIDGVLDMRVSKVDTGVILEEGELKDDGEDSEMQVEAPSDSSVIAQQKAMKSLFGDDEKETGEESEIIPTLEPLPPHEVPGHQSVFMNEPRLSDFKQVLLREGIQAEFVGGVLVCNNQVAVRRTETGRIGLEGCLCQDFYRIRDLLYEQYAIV
T7 sequence (Q92797 whole entry, chain 3 of 3): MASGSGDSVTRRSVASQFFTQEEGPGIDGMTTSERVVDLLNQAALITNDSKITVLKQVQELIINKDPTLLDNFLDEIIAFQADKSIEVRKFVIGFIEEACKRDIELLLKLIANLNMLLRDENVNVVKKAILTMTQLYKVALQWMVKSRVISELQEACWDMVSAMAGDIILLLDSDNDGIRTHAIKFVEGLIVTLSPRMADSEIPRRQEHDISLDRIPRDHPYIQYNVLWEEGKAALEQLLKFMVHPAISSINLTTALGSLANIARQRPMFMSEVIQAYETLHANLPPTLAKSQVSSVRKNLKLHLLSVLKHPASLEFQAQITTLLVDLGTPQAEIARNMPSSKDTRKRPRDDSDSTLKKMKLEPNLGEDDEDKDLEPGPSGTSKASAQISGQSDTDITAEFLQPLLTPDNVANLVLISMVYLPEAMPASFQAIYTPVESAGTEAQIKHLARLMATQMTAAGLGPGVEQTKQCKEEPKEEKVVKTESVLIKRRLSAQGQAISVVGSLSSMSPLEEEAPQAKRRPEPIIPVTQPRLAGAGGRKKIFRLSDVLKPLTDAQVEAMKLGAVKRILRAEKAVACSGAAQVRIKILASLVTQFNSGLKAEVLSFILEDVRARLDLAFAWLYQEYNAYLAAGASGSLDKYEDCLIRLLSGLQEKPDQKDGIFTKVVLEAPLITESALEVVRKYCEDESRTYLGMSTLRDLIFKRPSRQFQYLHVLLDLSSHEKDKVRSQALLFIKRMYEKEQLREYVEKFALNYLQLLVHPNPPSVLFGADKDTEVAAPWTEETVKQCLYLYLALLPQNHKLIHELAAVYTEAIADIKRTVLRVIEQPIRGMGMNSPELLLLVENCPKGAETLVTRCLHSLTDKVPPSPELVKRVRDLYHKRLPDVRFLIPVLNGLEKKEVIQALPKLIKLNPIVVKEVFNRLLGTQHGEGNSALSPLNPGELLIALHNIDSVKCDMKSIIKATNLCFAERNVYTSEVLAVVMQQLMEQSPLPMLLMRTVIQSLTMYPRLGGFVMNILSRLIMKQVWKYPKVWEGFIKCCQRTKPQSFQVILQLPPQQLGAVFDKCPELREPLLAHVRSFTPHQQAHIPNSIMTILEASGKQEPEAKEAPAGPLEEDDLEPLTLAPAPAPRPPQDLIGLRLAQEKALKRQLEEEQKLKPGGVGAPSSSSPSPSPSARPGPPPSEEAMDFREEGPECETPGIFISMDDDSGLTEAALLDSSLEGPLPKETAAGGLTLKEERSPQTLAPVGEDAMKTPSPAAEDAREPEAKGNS

CN1CCN(CCOc2c(Cl)cc(C(=O)N[C@@H](Cc3ccccc3)C(=O)O)c(O)c2Cl)CC1 [JTE-607 acid]
IC50 (CPSF73): ~350 nM

AUGAUCUAGGAGACACAAUAAAGGCAAUGUUUUUAUUUGUA (ssRNA) [5'-FAM-L3 41-nt RNA]
binding result [1]: binds | binding result (RBBP6 D43K R74E): binds | binding result (RBBP6 Y228G): binds | binding result (RBBP6 P195G): binds | binding result (RBBP6 1-335): binds

B1: SSU72 (enzyme, human, UniProt Q9NP77 1-194, looked up)
chain: MPSSPLRVAVVCSSNQNRSMEAHNILSKRGFSVRSFGTGTHVKLPGPAPDKPNVYDFKTTYDQMYNDLLRKDKELYTQNGILHMLDRNKRIKPRPERFQNCKDLFDLILTCEERVYDQVVEDLNSREQETCQPVHVVNVDIQDNHEEATLGAFLICELCQCIQHTEDMENEIDELLQEFEEKSGRTFLHTVCFY
notes: SSU72, human; the coding region amplified from the synthetic full-length gene; also called human SSU72; phosphatase SSU72; source: E. coli BL21(DE3) Star, purified (HisTrap, 3C cleavage, Superdex 75); not shown: His6, N-terminal, cleaved
binding result [2]: binds | binding result [3]: binds
